Experimental findings from patent US20250136687A1 are described below.

Assay [1] has as its target human CD3 on the cell surface (Jurkat cells, expanded human T cells, Jurkat-Lucia NFAT cells, human PBMC) (human) (UniProt P07766). As to the kind of experiment: FACS, expanded human T cells. In general terms: In flow cytometry, cells or beads pass a laser one at a time.
Assay [2] has the same target. The experiment in a line: cell-based or functional assay.
Assay [3] shares this target. As to the kind of experiment: FACS, Jurkat cells.
For assay [4] the target is unchanged. As to the kind of experiment: cell-based or functional assay. The source holds these as a separate data set.
The target in assay [5] is monkey CD3ε/δ-His (monkey) (UniProt Q95LI5). As to the kind of experiment: ELISA, coated antigen. Background: In an ELISA, binding on a coated surface is turned into a signal by an enzyme label.
Assay [6] concerns the target monkey CD3ε protein (monkey) (UniProt Q95LI5). As to the kind of experiment: ELISA, coated antigen.
In assay [7] the target is human CD3ε/δ-His (human) (UniProt P07766). The experiment in a line: ELISA, coated antigen.
Assay [8] addresses recombinant human CD3ε-ECD His protein (human) (UniProt P07766). As to the kind of experiment: ELISA, coated antigen.
Assay [9] deals with cynomolgus monkey CD3 on the surface of expanded monkey T cells (cynomolgus monkey) (UniProt Q95LI5). As to the kind of experiment: FACS, expanded monkey T cells.
Assay [10] shares this target. As to the kind of experiment: FACS, expanded monkey T cells, 20 nM antibody.
The target is the same in assay [11]. As to the kind of experiment: FACS, expanded monkey T cells, 4 nM antibody.
For assay [12], the target named is human CD3 on the cell surface (Jurkat cells, expanded human T cells, Jurkat-Lucia NFAT cells, human PBMC) (human) (UniProt P07766). The experiment in a line: FACS, expanded human T cells. This is another data set of the same source.
For assay [13] the target is unchanged. As to the kind of experiment: FACS, expanded human T cells. The source holds these as a separate data set.
For assay [14] the target is unchanged. The experiment in a line: FACS, expanded human T cells. The source holds these as a separate data set.
In assay [15] the target is recombinant human CD3ε-ECD His protein (human) (UniProt P07766). The experiment in a line: ELISA, coated antigen. The source holds these as a separate data set.
For assay [16], the target named is human CD3 on the cell surface (Jurkat cells, expanded human T cells, Jurkat-Lucia NFAT cells, human PBMC) (human) (UniProt P07766). As to the kind of experiment: cell-based or functional assay. The source holds these as a separate data set.
The target in assay [17] is cynomolgus monkey CD3 on the surface of expanded monkey T cells (cynomolgus monkey) (UniProt Q95LI5). As to the kind of experiment: FACS, expanded monkey T cells. The source holds these as a separate data set.
Assay [18] concerns the target human CD3 on the cell surface (Jurkat cells, expanded human T cells, Jurkat-Lucia NFAT cells, human PBMC) (human) (UniProt P07766). The experiment in a line: cell-based or functional assay. The source holds these as a separate data set.
In assay [19] the target is cynomolgus monkey CD3 on the surface of expanded monkey T cells (cynomolgus monkey) (UniProt Q95LI5). As to the kind of experiment: FACS, expanded monkey T cells, 100 nM antibody.
For assay [20] the target is unchanged. As to the kind of experiment: FACS, expanded monkey T cells. The source holds these as a separate data set.
Assay [21] deals with human CD3 on the cell surface (Jurkat cells, expanded human T cells, Jurkat-Lucia NFAT cells, human PBMC) (human) (UniProt P07766). The experiment in a line: FACS, Jurkat cells. The source holds these as a separate data set.
Assay [22] shares this target. The experiment in a line: FACS, Jurkat cells. This is another data set of the same source.
The target of assay [23] is monkey CD3ε/δ-His (monkey) (UniProt Q95LI5). The experiment in a line: ELISA, coated antigen, hybridoma screening.
The target in assay [24] is human CD3ε/δ-His (human) (UniProt P07766). As to the kind of experiment: ELISA, coated antigen, hybridoma screening.

One may read the EC50 as the concentration at which the effect is half-maximal.

“And” between values parts separate entries of the source, which are not always exact repeats. Equal entries are not always repeated. Where two headings read alike, the source gives them in different places.

monkey CD3ε/δ-His (monkey), sequence (Q95LI5 22-117, stated change not applied, form in doubt, chain 1 of 2): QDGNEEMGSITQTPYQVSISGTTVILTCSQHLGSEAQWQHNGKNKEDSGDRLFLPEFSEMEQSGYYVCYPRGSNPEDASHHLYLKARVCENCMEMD
monkey CD3ε/δ-His (monkey), sequence (Q95LI8 22-105, stated change not applied, form in doubt, chain 2 of 2, further chain): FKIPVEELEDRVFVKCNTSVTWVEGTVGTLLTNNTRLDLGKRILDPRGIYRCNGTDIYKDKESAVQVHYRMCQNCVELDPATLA
cynomolgus monkey CD3 on the surface of expanded monkey T cells (cynomolgus monkey), sequence (Q95LI5 22-198, chain 1 of 3): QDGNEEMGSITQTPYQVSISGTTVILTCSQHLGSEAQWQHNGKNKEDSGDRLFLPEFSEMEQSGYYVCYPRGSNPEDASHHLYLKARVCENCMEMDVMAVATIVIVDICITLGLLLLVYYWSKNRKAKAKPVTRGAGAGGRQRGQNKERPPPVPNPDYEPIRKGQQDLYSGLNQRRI
cynomolgus monkey CD3 on the surface of expanded monkey T cells (cynomolgus monkey), sequence (Q95LI8 22-171, chain 2 of 3, further chain): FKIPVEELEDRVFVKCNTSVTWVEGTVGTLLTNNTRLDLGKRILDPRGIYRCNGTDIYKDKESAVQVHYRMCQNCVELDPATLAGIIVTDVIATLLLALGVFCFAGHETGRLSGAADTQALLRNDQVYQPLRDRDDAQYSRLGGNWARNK
cynomolgus monkey CD3 on the surface of expanded monkey T cells (cynomolgus monkey), sequence (Q95LI7 23-181, chain 3 of 3, further chain): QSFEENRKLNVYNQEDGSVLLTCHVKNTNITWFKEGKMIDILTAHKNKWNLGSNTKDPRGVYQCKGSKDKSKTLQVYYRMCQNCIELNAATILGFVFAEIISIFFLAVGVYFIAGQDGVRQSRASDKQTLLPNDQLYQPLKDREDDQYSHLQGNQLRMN
human CD3ε/δ-His (human), sequence (P07766 23-126, stated change not applied, form in doubt, chain 1 of 2): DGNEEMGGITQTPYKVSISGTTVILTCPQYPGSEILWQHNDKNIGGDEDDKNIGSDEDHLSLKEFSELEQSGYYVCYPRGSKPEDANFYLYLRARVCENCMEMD
human CD3ε/δ-His (human), sequence (P04234 22-105, stated change not applied, form in doubt, chain 2 of 2, further chain): as the sequence (Q95LI8 22-105, stated change not applied, form in doubt, chain 2 of 2, further chain) above, with V5I, K15N, V20I, T32S, N33D, N34I, A64T, N74S, L83V counted along it
human CD3 on the cell surface (Jurkat cells, expanded human T cells, Jurkat-Lucia NFAT cells, human PBMC) (human), sequence (P07766 23-207, chain 1 of 3): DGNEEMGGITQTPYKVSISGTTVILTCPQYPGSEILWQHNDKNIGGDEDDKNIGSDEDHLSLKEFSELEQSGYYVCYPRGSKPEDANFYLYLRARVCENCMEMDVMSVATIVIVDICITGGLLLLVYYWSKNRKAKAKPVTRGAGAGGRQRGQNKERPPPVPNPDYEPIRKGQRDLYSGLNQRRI
human CD3 on the cell surface (Jurkat cells, expanded human T cells, Jurkat-Lucia NFAT cells, human PBMC) (human), sequence (P04234 22-171, chain 2 of 3, further chain): as the sequence (Q95LI8 22-171, chain 2 of 3, further chain) above, with V5I, K15N, V20I, T32S, N33D, N34I, A64T, N74S, L83V, R141H counted along it
human CD3 on the cell surface (Jurkat cells, expanded human T cells, Jurkat-Lucia NFAT cells, human PBMC) (human), sequence (P09693 23-182, chain 3 of 3, further chain): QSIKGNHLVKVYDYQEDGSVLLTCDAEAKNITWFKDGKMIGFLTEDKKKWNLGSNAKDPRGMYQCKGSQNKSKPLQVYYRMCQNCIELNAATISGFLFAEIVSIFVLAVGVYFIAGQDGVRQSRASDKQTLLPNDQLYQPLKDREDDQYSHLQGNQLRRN
recombinant human CD3ε-ECD His protein (human), sequence (P07766 23-126): as the sequence (P07766 23-126, stated change not applied, form in doubt, chain 1 of 2) above
monkey CD3ε protein (monkey), sequence (Q95LI5 22-117 limits assumed): as the sequence (Q95LI5 22-117, stated change not applied, form in doubt, chain 1 of 2) above

Turning to “anti-hel-hIgG1 (negative control antibody against Hen Egg Lysozyme)”, the half-maximal effective concentration (EC50) in assay [1] was 19.9 nM. Besides, the MFI Max was found to be 823 MFI in assay [1]; 151 MFI in assay [3]; 1570 MFI in assay [9]; 148 MFI in [12]; 124 MFI in assay [13]; 195 MFI in assay [14]. For the same substance, the MFI Max in [17] turned out to be 195 MFI; in assay [20], 87 MFI; in assay [21], 490 MFI; in assay [22] it was 182 MFI. Also, the Maximum fluorescence value Alexa 647 amounted to 480 MFI in assay [1], 299 MFI in assay [20] and 108 MFI in [21]. For the same substance, the max MFI was 2250 MFI in [1] and 74 MFI in assay [20]. The Maximum response value (RLU) was determined as 4250 RLU in [2], 2330 RLU in assay [4], 1830 RLU in assay [16] and 3780 RLU in assay [18]. For the same substance, the max-OD450 in [5] stood at 0.15 OD450; in [6], 0.16 OD450; with human CD3ε/δ-His (human) [7], 0.09 OD450; in assay [8], 0.11 OD450; in [15], 0.09 OD450. Besides, in assay [10], the MFI at antibody concentration 20 nM amounted to 80 MFI. Besides, in [11], the MFI at antibody concentration 4 nM was determined as 64 MFI. Moreover, the MFI at antibody concentration 100 nM in [19] turned out to be 170 MFI.
Take “anti-hel-mIgG1 (negative control antibody against Hen Egg Lysozyme)”: the OD450 is 0.07 OD450 and 0.04 OD450 and 0.05 OD450 in [23]; 0.05 OD450 and 0.04 OD450 with human CD3ε/δ-His (human) [24].
